Source: US20260242478A1 (published 2026)

How the values were obtained:
[1] = target: T1, anti-CD28 scFv (VH - linker 1 - VL) (biotinylated (site not given)); test: phage ELISA as before, wells pre-incubated with soluble CD28 (competitor)
[2] = target: T1, anti-CD28 scFv (VH - linker 1 - VL); test: phage ELISA; biotinylated anti-CD28 scFv on neutravidin plate, clonal phage supernatant, anti-M13-HRP detection;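 note: before phage addition, wells were pretreated with soluble CD28 protein in blocking buffer, or with blocking buffer only as the comparison, then phage were added without washing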
Experimental: (§1) Clonal phage were harvested as crude supernatants and screened via standard enzyme linked immunosorbent assays (ELISAs). […] Prior to the addition of clonal phage, wells were incubated with blocking buffer and CD28 soluble protein or blocking buffer alone. Without washing or aspirating, clonal phage supernatants were then added to the wells and incubated for a short time. Wells were then washed followed by detection of bound phage using a horse radish peroxidase conjugated anti-M13 antibody.

[3] = target: T2, Anti-CD28 scFv (VH - linker 1 - VL) (biotinylated (site not stated)); test: phage ELISA; biotinylated anti-CD28 scFv on neutravidin plate, wells pre-incubated with soluble CD28 (competitor), anti-M13-HRP detection;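 note: bound clonal phage detected by peroxidase-labelled anti-M13 antibody, compared against wells given blocking buffer alone without soluble CD28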
T2 construct: Biotinylated scFv captured on neutravidin coated plates in the panning ELISA
T2 sequence (scFv, as listed by the source): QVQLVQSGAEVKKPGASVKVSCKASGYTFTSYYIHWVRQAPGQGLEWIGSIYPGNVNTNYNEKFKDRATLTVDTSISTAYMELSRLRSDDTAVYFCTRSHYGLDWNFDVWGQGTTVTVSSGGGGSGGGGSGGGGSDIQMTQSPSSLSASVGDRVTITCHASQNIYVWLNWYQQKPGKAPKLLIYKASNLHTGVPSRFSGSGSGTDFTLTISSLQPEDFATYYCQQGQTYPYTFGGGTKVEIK

[4] = target: T3, Anti-CD28 scFv (VH - linker 1 - VL) (biotinylated (site not stated)); test: phage ELISA as above, wells pre-incubated with soluble CD28 (competitor);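 note: ELISA of crude clonal phage supernatants added to wells pre-treated with soluble CD28 in blocking buffer, bound phage read out with HRP-conjugated anti-M13 antibody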
T3 construct: Captured as biotinylated scFv on neutravidin plates in the panning ELISA
T3 sequence (scFv, as listed by the source): as above

[5] = target: T4, anti-CD28 scFv (VH - linker 1 - VL) (biotinylated (site not stated)); test: clonal phage ELISA; biotinylated anti-CD28 scFv on neutravidin plate, anti-M13-HRP detection;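 note: crude supernatants of phage clones were tested in wells pretreated with blocking buffer either alone or supplemented with soluble CD28 protein before phage addition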
T4 construct: Captured as biotinylated scFv on neutravidin coated plates in the clonal phage ELISA
T4 sequence (scFv, as listed by the source): as above

[6] = target: T4, anti-CD28 scFv (VH - linker 1 - VL); test: clonal phage ELISA; captured anti-CD28 scFv pre-incubated with soluble CD28 (competitor), anti-M13-HRP detection;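 note: crude clonal phage supernatants added to wells pretreated with soluble CD28 in blocking buffer, compared against wells given blocking buffer only, then bound phage measured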
Experimental: as §1

[7] = target: anti-CD28 scFv (VH - linker 1 - VL) (biotinylated (site not stated)); test: phage ELISA; biotinylated anti-CD28 scFv on neutravidin plate, clonal phage supernatant, anti-M13-HRP;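 note: before the phage were added, wells were pre-incubated with soluble CD28 protein in blocking buffer, or with blocking buffer alone, and were not washed in between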
Target sequence in this assay (scFv, as listed by the source): as above

T1 sequence (scFv, as listed by the source): as above

B1: Phage-75, clonal phage peptide MDWCPRSHWHVCYN (peptide)
peptide: MDWCPRSHWHVCYN
notes: tested as crude clonal phage supernatant; not shown: pIII of the bacteriophage to which the peptide is fused
CD28 scFv signal in presence of CD28 [1]: 0.281
CD28 scFv signal [2]: 1.95

B2: Phage-84, clonal phage peptide MDWCPKYLWSVCFF (peptide)
peptide: MDWCPKYLWSVCFF
notes: as for B1
CD28 scFv signal in presence of CD28 [1]: 0.826
CD28 scFv signal [2]: 2.62

MDWCPLYLWAECFN (tested as crude phage supernatant) [Phage-298]
CD28 scFv signal in presence of CD28 [3]: 0.193

B3: Phage-67, clonal phage peptide MNWCPTALWHVCFN (peptide)
peptide: MNWCPTALWHVCFN
notes: as for B1
CD28 scFv signal in presence of CD28 [1]: 0.169
CD28 scFv signal [2]: 1.64

B4: Phage-89, clonal phage peptide MDWCPRALWNVCFN (peptide)
peptide: MDWCPRALWNVCFN
notes: as for B1
CD28 scFv signal in presence of CD28 [1]: 0.472
CD28 scFv signal [2]: 2.6

B5: Phage-72, clonal phage peptide MFWCPTTMWNRCFT (peptide)
peptide: MFWCPTTMWNRCFT
notes: as for B1
CD28 scFv signal in presence of CD28 [1]: 0.338
CD28 scFv signal [2]: 0.662

B6: Phage-68, clonal phage peptide MDWCPMYMWYECFA (peptide)
peptide: MDWCPMYMWYECFA
notes: as for B1
CD28 scFv signal in presence of CD28 [1]: 0.358
CD28 scFv signal [2]: 2.48

B7: Phage-90, clonal phage peptide MDWCPIDLWHLCFY (peptide)
peptide: MDWCPIDLWHLCFY
notes: as for B1
CD28 scFv signal in presence of CD28 [1]: 0.488
CD28 scFv signal [2]: 2.59

B8: Phage-82, clonal phage peptide MDWCPRDLWTECFA (peptide)
peptide: MDWCPRDLWTECFA
notes: as for B1
CD28 scFv signal in presence of CD28 [1]: 0.151
CD28 scFv signal [2]: 2.63

B9: Phage-87, clonal phage peptide MDWCPKDLWYLCFA (peptide)
peptide: MDWCPKDLWYLCFA
notes: as for B1
CD28 scFv signal in presence of CD28 [1]: 0.213
CD28 scFv signal [2]: 2.61

B10: Phage-78, clonal phage peptide MDWCPRHLWHECFN (peptide)
peptide: MDWCPRHLWHECFN
notes: as for B1
CD28 scFv signal in presence of CD28 [1]: 0.704
CD28 scFv signal [2]: 2.65

B11: Phage-92, clonal phage peptide MDWCPRHLWHECFF (peptide)
peptide: MDWCPRHLWHECFF
notes: as for B1
CD28 scFv signal in presence of CD28 [1]: 0.373
CD28 scFv signal [2]: 2.58

B12: Phage-73, clonal phage peptide MDWCPRALWHECFN (peptide)
peptide: MDWCPRALWHECFN
notes: as for B1
CD28 scFv signal in presence of CD28 [1]: 0.401
CD28 scFv signal [2]: 2.69

B13: Phage-86, clonal phage peptide MDWCPRHLWAECFF (peptide)
peptide: MDWCPRHLWAECFF
notes: as for B1
CD28 scFv signal in presence of CD28 [1]: 0.292
CD28 scFv signal [2]: 2.61

B14: Phage-76, clonal phage peptide MDWCPRYLWSDCFA (peptide)
peptide: MDWCPRYLWSDCFA
notes: as for B1
CD28 scFv signal in presence of CD28 [1]: 1.53
CD28 scFv signal [2]: 2.73

IDWCPMHMWDFCYN [Phage-390]
CD28 scFv signal in presence of CD28 [4]: 0.232

B15: Phage-199 (peptide)
peptide: MDWCPRNMWAQCFA
notes: tested as crude clonal phage supernatant
CD28 scFv signal [5]: 2.31
CD28 scFv signal in presence of CD28 [6]: 0.209

B16: Phage-71, clonal phage peptide MDWCPRYLWHECFA (peptide)
peptide: MDWCPRYLWHECFA
notes: as for B1
CD28 scFv signal in presence of CD28 [1]: 0.429
CD28 scFv signal [2]: 2.63

LHWCPTSMWTYCYY [Phage-392]
CD28 scFv signal in presence of CD28 [4]: 2.46

B17: Phage-69, clonal phage peptide MDWCPIHMWADCFA (peptide)
peptide: MDWCPIHMWADCFA
notes: as for B1
CD28 scFv signal in presence of CD28 [1]: 0.143
CD28 scFv signal [2]: 2.46

B18: Phage-74, clonal phage peptide MDWCPRDMWLFCYN (peptide)
peptide: MDWCPRDMWLFCYN
notes: as for B1
CD28 scFv signal in presence of CD28 [1]: 1.02
CD28 scFv signal [2]: 2.71

MDWCPRYLWNVCFA (tested as crude phage supernatant) [Phage-289]
CD28 scFv signal in presence of CD28 [3]: 0.28

B19: Phage-83, clonal phage peptide … (peptide)
peptide: MDWCPRFLWDECFN
notes: as for B1
CD28 scFv signal in presence of CD28 [1]: 0.483
CD28 scFv signal [2]: 2.63

B20: Phage-79, clonal phage peptide MDWCPRDLWHECFS (peptide)
peptide: MDWCPRDLWHECFS
notes: as for B1
CD28 scFv signal in presence of CD28 [1]: 0.382
CD28 scFv signal [2]: 2.65

B21: Phage-88, clonal phage peptide MDWCPIHLWHYCFN (peptide)
peptide: MDWCPIHLWHYCFN
notes: as for B1
CD28 scFv signal in presence of CD28 [1]: 0.453
CD28 scFv signal [2]: 2.6

B22: Phage-202 (peptide)
peptide: MFWCPMDMWDQCFN
notes: as for B15
CD28 scFv signal [5]: 2.26
CD28 scFv signal in presence of CD28 [6]: 0.207

B23: Phage-70, clonal phage peptide ITWCPSSMWNRCFI (peptide)
peptide: ITWCPSSMWNRCFI
notes: as for B1
CD28 scFv signal in presence of CD28 [1]: 0.11
CD28 scFv signal [2]: 0.379

B24: Phage-77, clonal phage peptide MDWCPFYLWDECFN (peptide)
peptide: MDWCPFYLWDECFN
notes: as for B1
CD28 scFv signal in presence of CD28 [1]: 0.291
CD28 scFv signal [2]: 2.67

MDWCPPHLWHECFF [Phage-358 clonal phage peptide MDWCPPHLWHECFF]
CD28 scFv signal [7]: 1.45

B25: Phage-66, clonal phage peptide MDWCPRYLWNECFY (peptide)
peptide: MDWCPRYLWNECFY
notes: as for B1
CD28 scFv signal in presence of CD28 [1]: 0.358
CD28 scFv signal [2]: 2.54

B26: Phage-198 (peptide)
peptide: MDWCPRAMWNHCFN
notes: as for B15
CD28 scFv signal [5]: 2.33
CD28 scFv signal in presence of CD28 [6]: 0.426

MDWCPRHLWTECFS (tested as crude phage supernatant) [Phage-297]
CD28 scFv signal in presence of CD28 [3]: 0.243

B27: Phage-91, clonal phage peptide … (peptide)
peptide: MDWCPRDLWFLCYN
notes: as for B1
CD28 scFv signal in presence of CD28 [1]: 0.424
CD28 scFv signal [2]: 2.59

B28: Phage-85, clonal phage peptide MDWCPMDLWYQCFN (peptide)
peptide: MDWCPMDLWYQCFN
notes: as for B1
CD28 scFv signal in presence of CD28 [1]: 0.187
CD28 scFv signal [2]: 2.62

B29: Phage-197 (peptide)
peptide: MDWCPRHMWYECFF
notes: as for B15
CD28 scFv signal [5]: 2.34
CD28 scFv signal in presence of CD28 [6]: 0.298

B30: Phage-201 (peptide)
peptide: MDWCPRDMWDQCFD
notes: as for B15
CD28 scFv signal [5]: 2.29
CD28 scFv signal in presence of CD28 [6]: 0.119

B31: Phage-200 (peptide)
peptide: MFWCPFDMWHFCFN
notes: as for B15
CD28 scFv signal [5]: 2.29
CD28 scFv signal in presence of CD28 [6]: 0.469
